Columns and labels:
[1] = target: human MSLN expressed on cancer cell surface (human) (UniProt Q13421); test: flow cytometry on H226 cells expressing MSLN, control antibody, PE-conjugated anti-human IgG detection
[2] = target: human MSLN expressed on cancer cell surface (human) (UniProt Q13421); test: flow cytometry on PL45 cells expressing MSLN, control antibody, PE-conjugated anti-human IgG detection
[3] = target: human MSLN expressed on cancer cell surface (human) (UniProt Q13421); test: flow cytometry on AsPC1 cells expressing MSLN, control antibody, PE-conjugated anti-human IgG detection
[4] = target: human MSLN expressed on cancer cell surface (human) (UniProt Q13421); test: flow cytometry on Capan2 cells expressing MSLN, control antibody, PE-conjugated anti-human IgG detection
recombinant human MSLN = target: T1, recombinant human MSLN (human, UniProt Q13421 296-580, limits assumed); test: BLI (Octet), MSLN on anti-Penta His sensor, antibody 3.125-50 nM
T1 construct: It was fixed to an anti-Penta His (HIS1K) sensor, so a His tag is implied; also called recombinant MSLN; mesothelin
T1 sequence (Q13421 other isoform, or with tags, fused parts or gaps limits assumed): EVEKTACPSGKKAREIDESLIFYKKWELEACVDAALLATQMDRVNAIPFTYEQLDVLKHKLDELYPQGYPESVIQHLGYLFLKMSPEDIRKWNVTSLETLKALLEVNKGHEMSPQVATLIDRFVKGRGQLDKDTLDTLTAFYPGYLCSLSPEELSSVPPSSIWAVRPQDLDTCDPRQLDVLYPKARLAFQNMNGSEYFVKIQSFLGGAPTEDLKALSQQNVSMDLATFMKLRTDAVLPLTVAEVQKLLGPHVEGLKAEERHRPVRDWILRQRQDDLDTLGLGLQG
Method: Specifically, recombinant human MSLN was prepared at a concentration of 5 μg/ml in 1× kinetic buffer and used to treat a 96-well-plate at 200 μl/well. The MSLN after treatment was fixed to the anti-Penta His (HIS1K, Cat #18-5121, Fortebio) sensor.
Then, the 3 humanized anti-MSLN antibodies produced in accordance with Example 1 and the mouse human chimeric MI323 IgG1 clones were diluted to a concentration of 50, 25, 12.5, 6.25, or 3.125 nM in 1× kinetic buffer, and treatment therewith was performed at 200 μl/well. For the 1×kinetic buffer, one obtained by 10-fold dilution of 10×kinetic buffer (ForteBio, Cat #18-1092) with PBS was used.
The interaction between the MSLN fixed to the sensor and the antibody at several concentrations was analyzed to calculate antigen-antibody affinity, and the results are shown in Table 4 below.

Sequence of human MSLN expressed on cancer cell surface (human) (Q13421 other isoform, or with tags, fused parts or gaps limits assumed): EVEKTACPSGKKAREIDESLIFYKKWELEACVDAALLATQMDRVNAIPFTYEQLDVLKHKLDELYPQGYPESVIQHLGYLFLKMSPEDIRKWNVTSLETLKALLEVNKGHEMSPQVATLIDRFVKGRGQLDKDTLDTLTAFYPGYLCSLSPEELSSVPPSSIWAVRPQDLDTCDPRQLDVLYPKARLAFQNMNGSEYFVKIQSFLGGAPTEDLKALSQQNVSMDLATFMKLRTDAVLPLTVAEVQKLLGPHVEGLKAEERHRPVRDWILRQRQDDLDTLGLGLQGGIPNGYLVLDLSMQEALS

Row | Molecule | MFI [1] | MFI [2] | MFI [3] | MFI [4] | Kd (recombinant human MSLN) | koff (recombinant human MSLN) | kon (recombinant human MSLN)
1 | hIgG (antibody) | 120 | 96.5 | 85.9 | 169 |  |  | 
2 | HMI323VL-1/HMI323VH-3 IgG1 (antibody, V domains shown, also called humanized MI323 IgG1) VH: EVQLVQSGAEVKKPGTSVKVSCKASGYSFTSYFIQWVRQAPGQGLEWIGWIFPGSGNTKYSQKFQGRVTITRDTSTSTAYMELSSLRSEDTAVYYCARSGGYQYYFDYWGQGTLVTVSS VL: DIQMTQSPSSLSASVGDRVTITCRASQDVSTAVAWYQQKPGKAPKLLIYSASYRYPGVPSRFSGSGSGTDFTLTISSLQPEDFATYYCQQHYSTPWTFGGGTKLEIKR |  |  |  |  | 32.7 pM | 2.75e-05 s⁻¹ | 842000 M⁻¹ s⁻¹
3 | mouse/human chimeric MI323 IgG1 (antibody, V domains shown, Control antibody; also called mouse human chimeric MI323 IgG1 antibody; MI323 antibody) VH: EVQLQQSGPELVKPGTSVKISCKASGYSFTSYFIQWVKQRPGQGLEWIGWIFPGSGNTKYNEMFKGKATLAADTSSSTAYMQLSSLTSEDSAVYFCARSGGYQYYFDYWGQGTSVTVSS VL: DIVMTQSHKFMSTSVGDRVSITCKASQDVSTAVAWYQQKPGQSPKLLIYSASYRYPGVPDRFTGSGSGTDFTFTISSVQAEDLALYYCQQHYSTPWTFGGGTKLEIKR |  |  |  |  | 28.6 pM | 1.3e-05 s⁻¹ | 454000 M⁻¹ s⁻¹

Further molecules by falling Kd (recombinant human MSLN), results first:

Row | MFI [1] | MFI [2] | MFI [3] | MFI [4] | Kd (recombinant human MSLN) | koff (recombinant human MSLN) | kon (recombinant human MSLN) | Molecule
4 |  |  |  |  | 273 pM | 0.000509 s⁻¹ | 1.86e+06 M⁻¹ s⁻¹ | HMI323VL-1/HMI323VH-2 (antibody, human IgG1, kappa, V domains shown, also called humanized MI323 IgG1 (VL-1/VH-2)) VH: QVQLVQSGAEVKKPGSSVKVSCKASGYSFTSYFISWVRQAPGQGLEWMGGIFPGSGNANYAQKFQGRVTITADESTSTAYMELSSLRSEDTAVYYCARSGGYQYYFDYWGQGTLVTVSS VL: DIQMTQSPSSLSASVGDRVTITCRASQDVSTAVAWYQQKPGKAPKLLIYSASYRYPGVPSRFSGSGSGTDFTLTISSLQPEDFATYYCQQHYSTPWTFGGGTKLEIKR
5 |  |  |  |  | 139 pM | 9.25e-05 s⁻¹ | 665000 M⁻¹ s⁻¹ | HMI323VL-1/HMI323VH-1 (antibody, human IgG1, kappa, V domains shown, also called humanized MI323 IgG1 (VL-1/VH-1)) VH: QVQLVQSGAEVKKPGASVKVSCKASGYSFTSYFMHWVRQAPGQRLEWMGWIFPGNGNTKYSQKFQGRVTITRDTSASTAYMELSSLRSEDTAVYYCARSGGYQYYFDYWGQGTLVTVSS VL: DIQMTQSPSSLSASVGDRVTITCRASQDVSTAVAWYQQKPGKAPKLLIYSASYRYPGVPSRFSGSGSGTDFTLTISSLQPEDFATYYCQQHYSTPWTFGGGTKLEIKR
